Reference: patent US11826402B2, “Combination therapy involving antibodies against claudin 18.2 for treatment of metastatic pancreatic adenocarcinoma” (Astellas Pharma Inc., priority 2013, dated 2023)

Molecular target: first extracellular domain (ECD1) of CLDN18.2 (Homo sapiens, UniProt P56856)
Assay: Target binding of IMAB362 (background)

“IMAB362: chimeric IgG1 antibody directed against CLDN18.2, developed by Ganymed Pharmaceuticals AG” was tested, and the “recognition of ECD1 of CLDN18.2” value was “high affinity and specificity”.
